In PMC10397247:
One block for each binder: values may come before it.

What was measured:
Assay in all cases: two-hybrid library CCmax;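 also: natural log of median RNA to DNA barcode read ratio; higher means stronger binding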
[1] = target: GCN2_T; settings: mean of both orientations
[2] = target: T1, 4H_APH; settings: mean of both orientations
T1 chain: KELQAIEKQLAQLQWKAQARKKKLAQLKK

[3] = target: T2, 4H_BCR; settings: mean of both orientations
T2 chain: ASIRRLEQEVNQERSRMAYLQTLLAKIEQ

[4] = target: T3, 4H406-AA; settings: mean of both orientations
T3 chain: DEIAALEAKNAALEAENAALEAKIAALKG

[5] = target: 4H_GCN4; settings: mean of both orientations
[6] = target: T4, 4H347-AA; settings: mean of both orientations
T4 chain: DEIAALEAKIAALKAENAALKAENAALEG

[7] = target: T5, 4H56-AA; settings: mean of both orientations
T5 chain: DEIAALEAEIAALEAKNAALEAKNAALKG

[8] = target: T6, 4H3438-AA
T6 chain: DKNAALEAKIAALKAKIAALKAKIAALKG

[9] = target: T7, 4H452-AA; settings: mean of both orientations
T7 chain: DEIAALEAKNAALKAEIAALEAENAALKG

[10] = target: T8, 4H816-AA
T8 chain: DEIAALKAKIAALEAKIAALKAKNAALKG

[11] = target: T9, 4H87-AA; settings: mean of both orientations
T9 chain: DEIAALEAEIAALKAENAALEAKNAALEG

[12] = target: T10, APC9806-AA; settings: mean of both orientations
T10 chain: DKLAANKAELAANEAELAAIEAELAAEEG

[13] = target: T11, APC7524-AA; settings: mean of both orientations
T11 chain: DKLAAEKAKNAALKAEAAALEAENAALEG

[14] = target: T12, APC6088-AA
T12 chain: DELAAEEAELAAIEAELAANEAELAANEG

[15] = target: T13, APC8401-AA; settings: mean of both orientations
T13 chain: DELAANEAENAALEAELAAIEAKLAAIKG

[16] = target: T14, APC8516-AA; settings: mean of both orientations
T14 chain: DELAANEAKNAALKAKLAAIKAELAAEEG

[17] = target: T15, APC9291-AA; settings: mean of both orientations
T15 chain: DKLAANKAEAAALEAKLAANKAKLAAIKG

[18] = target: T16, APC9182-AA; settings: mean of both orientations
T16 chain: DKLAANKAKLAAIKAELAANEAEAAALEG

[19] = target: T17, APC9141-AA; settings: mean of both orientations
T17 chain: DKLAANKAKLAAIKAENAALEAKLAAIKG

Chain of 4H_GCN4 (chain, as listed by the source): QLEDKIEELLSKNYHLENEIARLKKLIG

- interaction score [1]: -1
- interaction score [2]: -1.5
- interaction score [3]: -1.47
- interaction score [4]: -1.51
- interaction score [5]: -1.68
- interaction score [6]: -0.916
- interaction score [7]: 0.462
- interaction score [8]: 0.922
- interaction score [9]: -0.716
Binder: DKNAALEAKIAALKAKIAALKAKIAALKG [4H3438-AA]

- interaction score [10]: 1.02
- interaction score [11]: 0.567
Binder: DEIAALKAKIAALEAKIAALKAKNAALKG [4H816-AA]

- interaction score [12]: -1.36
- interaction score [13]: -1.52
- interaction score [14]: -1.3
- interaction score [15]: -1.56
- interaction score [16]: -2.19
- interaction score [17]: -1.58
- interaction score [18]: -1.84
- interaction score [19]: -1.67
Binder: DELAAEEAELAAIEAELAANEAELAANEG [APC6088-AA]
